# Test results as given in patent US7078385B2, “Methods of inhibiting angiogenesis with fragments and homologs of troponin subunit I” (Boston Life Sciences, Inc., priority 1996, dated 2006).
# Legend:
# [1] = tested on: capillary EC from bovine adrenal cortex, VEGF-stimulated; conditions: read-out: IC50, capillary EC proliferation; VEGF as mitogen
# Protocol: (§1) Capillary EC, isolated from bovine adrenal cortex (Folkman, et al., 1979, Proc. Natl. Acad. Sci. USA 76, 5217–5221) were obtained from Children's Hospital (Boston, Mass.). […] Cells were maintained in culture in DME (Dulbecco's Modified Eagle's Medium, Gibco Laboratories) with 10% calf serum (Hyclone) (DME/10) supplemented with 3 ng/ml bFGF or Vascular Endothelial Growth Factor (VEGF) in preparation for these assays.
# (§2) Briefly, capillary EC (2,000 cells per well) were plated on gelatinized 96-Well culture plates in DMEM supplemented with 5% (v/v) calf serum and incubated for 24 hours. On day 2, cells were treated with bFGF (Scios Nova; 1 ng/ml) and challenged with the test fractions and/or with purified TnI. For experiments in which VEGF was used as the mitogen, 800 cells per well were plated and allowed to incubate for 3 hours before VEGF (Biomedical Technologies Incorporated; 30 ng/ml) and TnI was added. Control wells contained cells alone and cells stimulated with bFGF or VEGF. On day 5, growth medium was removed from the plates; cells were lysed in buffer containing the detergent Triton x-100 and the phosphatase substrate p-nitrophenyl phosphate. […] Color development was determined using a rapid multiwell plate reader (Dynatech MR 5000) (Moses, et al., 1990, Science 2488, 1408–1410; Moses, et al., 1990, J. Cell. Biol. 119, 474–481; Connolly, et al., 1986, Anal. Biochem. 152, 136–140).
# BALB/c mouse 3T3 cells = assay: Cell specificity: tritiated thymidine incorporation in quiescent 3T3 cells; assay type: cell-based; conditions: doses over 5× higher than the IC50 for capillary EC
# [2] = tested on: bovine aortic smooth muscle cells (SMC); assay: Cell specificity: PDGF-BB-stimulated smooth muscle cell proliferation, electronic cell counting; assay type: cell-based; conditions: doses over 5× higher than the IC50 for capillary EC
# Protocol: BALB/c mouse 3T3 cells were maintained in DME/10, L-glutamine(292 μg/ml) as previously described (Klagsbrun, et al., 1977, Exp. Cell Res. 105, 99–108). Bovine aortic smooth muscle cells (SMC), isolated by explant from the medial layer of bovine aortas, were obtained from Children's Hospital (Boston, Mass.). These cells were cultured in DME/10 on uncoated tissue culture plastic as previously described (D'Amore and Smith, 1993, Growth Factors 8, 61–75).
# To determine whether the proliferation of bovine aortic SMC and Balb c/3T3 cells was inhibited by TnI, the following assays were conducted. SMC were plated into multiwell dishes (2.1 cm^2/well) at a density of 10,000 cells/well. After allowing the cells to attach overnight, fresh media was applied containing either 3 ng/ml PDGF-BB alone or in combination with increasing concentrations of purified TnI. Following incubation for 72 hrs at 37° C. in 10% CO2, the cells were rinsed in PBS, detached by trypsinization and counted electronically.
# [3] = tested on: bFGF-induced corneal angiogenesis; assay: Mouse corneal pocket assay; assay type: in vivo, C57BL/6 mice; conditions: 50 mg/kg subcutaneous every 12 hours, sixth day of treatment
# Protocol: Briefly, pellets composed of bFGF (40 ng/ml), sucrose octasulfate and Hydron were implanted into corneal micropockets of six C57BL/6 mice as previously described (U.S. Pat. No. 5,837,680 to Moses et al.). Troponin I (50 mg/kg) was administered systemically every 12 hours by subcutaneous injection. On the sixth day of treatment, corneal angiogenesis was evaluated using slit lamp microscopy and photographed.
# [4] = tested on: embryonic neovascularization of the chick chorioallantoic membrane; assay: Chick chorioallantoic membrane (CAM) assay; assay type: in vivo; conditions: 48 h
# Protocol: All procedures were carried out in a laminar flow hood under sterile conditions. The eggs were stored in a Favorite Egg Incubator (Leahy) at 37° C. and 65% relative humidity. On day 3 of development, fertilized White Leghorn eggs (SPAFAS) were cracked and the embryos removed from their shells and placed in plastic petri dishes. On day 6, test substances including native rabbit TnI (Greaser and Gergely, 1971, J. Biol. Chem. 246, 4226–4233) and recombinant human TnI and appropriate buffer controls were mixed in methylcellulose, disks and applied to the surfaces of the growing CAMs above the dense subectodermal plexus.
# [5] = tested on: B16-BL6 melanoma lung metastases; assay: B16-BL6 melanoma lung metastasis model; assay type: in vivo, C57BL/6 mice
# Protocol: Murine melanoma B16-BL6 were cultured in RPMI 1640 (Gibco) supplemented with 10% (v/v) fetal calf serum (Hyclone), L-glutamine and NaHCO3. Cells were washed with EBSS (Gibco) and trypsinized for 3 to 5 mm with 0.25% TRL/0.2% EDTA to which culture buffer was added for washing. This preparation was then centrifuged for 10 mm at 1000 rpm, the cell pellet resuspended in fresh culture media, cell number determined using a coulter counter and cell viability determined with trypan blue (100% viability). The cell suspension was adjusted to […] for implantation. B16-BL6 cells (5×10^5/0.2 ml) were injected into the tail veins of C57BL/6 mice (approximately 6–7 weeks old). One day following tumor cell inoculation, mice were treated with rTnI systemically, twice per week, with a dose of either 1 mg/kg (n=10) or 20 mg/kg (n=10) or vehicle (150 mM NaCl, 20 mM citrate, pH3) over, a 28 day period. On day 30, animals were sacrificed, the number of lung surface metastases counted and the lungs weighed.
# [6] = tested on: capillary EC from bovine adrenal cortex, bFGF-stimulated; assay: bFGF-stimulated capillary EC proliferation (Example 8); assay type: cell-based; conditions: bFGF as mitogen
# Protocol: as §1, §2
# [7] = tested on: capillary EC DNA synthesis; assay: Tritiated thymidine incorporation, capillary EC DNA synthesis; assay type: cell-based, bovine; conditions: tritiated thymidine assay
# Protocol: On day one, 5,000 bovine capillary endothelial cells in DMEM/10% CS/1% GPS are plated onto each well of a 96-well pregelatinized tissue culture plate. On day two, the cell media is changed to DMEM, 2% CS, 1% GPS, 0.5% BSA (complete medium), supplemented with 10 μl of 1 mg/ml “cold” thymidine per 50 ml of medium. On day three, test samples in complete medium are added in duplicate. Additionally, […] (bFGF) is added to each well except for the appropriate controls, to a final concentration of 0.2 ng/well. On day four, 5 μl of 1:13 diluted ^3H-Thymidine stock is added to each well and the plate is incubated for 5–6 hours. Following incubation, the medium is aspirated, and the remainder is rinsed once with PBS, then twice for 5 minutes each with methanol followed by two rinses each for 10 minutes with 5% TCA. The cells are then rinsed with water three times, dried to the plate, and 100 μl of 0.3 N NaOH is added to each well. The contents of the well are then transferred to the scintillation counter vials and 3 mls of Ecolume added to each vial. Samples are then counted on the scintillation counter.
molecule,measurement,setting,value
"rTnI: recombinant human fast-twitch skeletal muscle troponin I expressed in E. coli, about 21 kDa (SEQ ID NO:17) (protein, listed as Homo sapiens) MGDEEKRNRAITARRQHLKSVMLQIAATELEKEESRREAEKQNYLAEHCPPLHIPGSMSEVQELCKQLHAKIDAAEEEKYDMEVRVQKTSKELEDMNQKLFDLRGKFKRPPLRRVRMSADAMLKALLGSKHKVCMDLRANLKQVKKEDTEKERDLRDVGDWRKNIEEKSGMEGRKKMFESES",IC50,[1],~1.5 nM
same,Suppression of growth of Balb/c 3T3 cells,BALB/c mouse 3T3 cells,did not suppress the growth
same,Suppression of growth of bovine aortic smooth muscle cells,[2],did not suppress the growth
same,Inhibition of bFGF-induced corneal angiogenesis (in words),[3],significantly inhibited
same,Eggs with avascular zone (inhibition of embryonic neovascularization),[4]; 130 picomoles,66%
same,Eggs with avascular zone (inhibition of embryonic neovascularization),[4]; approximately 380 picomoles,100%
same,Inhibition of lung metastases,"[5]; 1 mg/kg systemically twice weekly, 28 days, day 30",52%
same,Inhibition of lung metastases,"[5]; 20 mg/kg systemically twice weekly, 28 days, day 30",64%
same,"Number of lung surface metastases (mean, SEM)","[5]; 20 mg/kg twice weekly, day 30",25.0+/−7.5
same,Toxicity (weight or appetite loss),"[5]; 1 or 20 mg/kg twice weekly, 28 days",no observed toxicity
same,"Lung weights, treated versus control groups","[5]; 1 or 20 mg/kg twice weekly, day 30",comparable
same,IC50,[6],~65 nM
same,IC50,[7],~240 nM
